Experiments:
c-Abl (mouse) = assay: phosphorylation enrichment, bacterial display (enrichment ratio); higher = better substrate or ligand; peptides without Tyr show the background
Hck = Hck (UniProt P08631); assay: as above
AncSZ = assay: as above
Fyn = Fyn (UniProt P06241); assay: as above
FGFR1 = FGFR1 (UniProt P11362); assay: as above
FGFR3 = FGFR3 (UniProt P22607); assay: as above
MERTK = MERTK (UniProt Q12866); assay: as above
EPHB1 = EPHB1 (UniProt P54762); assay: as above
EPHB2 = EPHB2 (UniProt P29323); assay: as above
Fes = Fes (UniProt P07332); assay: as above
Fes, sequence (P07332 whole entry, looked up): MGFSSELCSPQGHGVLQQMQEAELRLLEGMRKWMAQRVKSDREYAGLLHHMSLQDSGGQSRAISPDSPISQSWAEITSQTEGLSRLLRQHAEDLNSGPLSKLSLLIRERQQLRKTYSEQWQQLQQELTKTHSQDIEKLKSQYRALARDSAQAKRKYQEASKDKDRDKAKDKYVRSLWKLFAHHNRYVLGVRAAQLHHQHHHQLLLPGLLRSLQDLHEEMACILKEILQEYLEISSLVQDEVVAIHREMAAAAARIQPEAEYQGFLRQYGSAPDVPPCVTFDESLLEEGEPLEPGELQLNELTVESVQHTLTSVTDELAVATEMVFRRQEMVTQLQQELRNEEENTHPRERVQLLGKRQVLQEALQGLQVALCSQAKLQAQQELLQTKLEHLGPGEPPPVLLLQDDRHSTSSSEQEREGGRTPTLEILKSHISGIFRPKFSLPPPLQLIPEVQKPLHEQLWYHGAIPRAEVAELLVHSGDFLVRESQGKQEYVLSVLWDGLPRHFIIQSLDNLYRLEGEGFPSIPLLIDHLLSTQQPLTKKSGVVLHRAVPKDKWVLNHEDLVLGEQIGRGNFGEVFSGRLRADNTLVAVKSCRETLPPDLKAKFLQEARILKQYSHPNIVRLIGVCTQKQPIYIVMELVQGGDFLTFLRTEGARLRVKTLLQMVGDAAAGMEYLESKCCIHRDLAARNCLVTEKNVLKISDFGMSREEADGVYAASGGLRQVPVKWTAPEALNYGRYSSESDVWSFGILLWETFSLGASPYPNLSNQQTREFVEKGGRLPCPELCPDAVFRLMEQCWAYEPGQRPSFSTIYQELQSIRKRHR

c-Src = assay: as above
Jak2 = Jak2 (UniProt O60674); assay: as above
Jak2, sequence (O60674 whole entry, looked up): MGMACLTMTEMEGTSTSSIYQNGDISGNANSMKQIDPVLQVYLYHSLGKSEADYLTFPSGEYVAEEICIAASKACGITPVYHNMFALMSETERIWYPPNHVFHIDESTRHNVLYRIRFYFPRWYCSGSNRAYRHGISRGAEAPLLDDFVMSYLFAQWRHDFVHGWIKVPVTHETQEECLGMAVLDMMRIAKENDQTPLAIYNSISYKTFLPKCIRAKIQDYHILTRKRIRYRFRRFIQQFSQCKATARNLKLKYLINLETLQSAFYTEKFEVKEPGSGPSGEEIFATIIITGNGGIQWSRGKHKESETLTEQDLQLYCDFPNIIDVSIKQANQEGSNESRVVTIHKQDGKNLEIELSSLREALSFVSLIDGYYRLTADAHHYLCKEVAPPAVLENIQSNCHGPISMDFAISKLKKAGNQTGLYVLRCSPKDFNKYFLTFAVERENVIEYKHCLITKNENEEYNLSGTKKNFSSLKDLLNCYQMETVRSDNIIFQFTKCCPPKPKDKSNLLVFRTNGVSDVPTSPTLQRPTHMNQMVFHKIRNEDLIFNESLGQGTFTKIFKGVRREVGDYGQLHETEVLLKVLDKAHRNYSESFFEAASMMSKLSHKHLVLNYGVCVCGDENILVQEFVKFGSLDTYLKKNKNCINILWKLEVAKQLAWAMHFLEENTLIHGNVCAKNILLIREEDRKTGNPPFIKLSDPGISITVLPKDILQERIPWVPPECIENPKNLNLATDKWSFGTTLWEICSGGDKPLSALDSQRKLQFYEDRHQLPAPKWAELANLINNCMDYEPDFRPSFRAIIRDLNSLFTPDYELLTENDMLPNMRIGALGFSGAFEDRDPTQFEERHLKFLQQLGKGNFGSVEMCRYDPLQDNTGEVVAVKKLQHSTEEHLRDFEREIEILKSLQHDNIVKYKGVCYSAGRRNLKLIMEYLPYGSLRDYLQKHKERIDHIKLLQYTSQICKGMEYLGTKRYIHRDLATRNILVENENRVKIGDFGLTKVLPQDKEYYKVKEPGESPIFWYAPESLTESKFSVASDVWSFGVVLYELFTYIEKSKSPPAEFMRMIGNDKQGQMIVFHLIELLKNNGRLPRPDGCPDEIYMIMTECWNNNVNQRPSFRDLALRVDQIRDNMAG

Fer (mouse) = assay: as above
SHP2-C SH2 = assay: SH2 binding enrichment of the phosphorylated peptide, bacterial display (enrichment ratio); higher = better substrate or ligand; peptides without Tyr show the background
c-Src SH2 = assay: as above
Grb2 SH2 = Grb2 SH2 (UniProt P62993); assay: as above
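Wherever SH2 binding enrichment of the phosphorylated peptide, bacterial display is given: peptide library displayed on the E. coli surface as eCPX fusions, selected cells deep-sequenced, score is each peptide's frequency after selection divided by its frequency in the input.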
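Wherever phosphorylation enrichment, bacterial display is given: 11-residue human phosphosite peptides and single-mutation variants displayed on the E. coli surface, counted by deep sequencing, each peptide's frequency after selection divided by its frequency in the unselected input library; frequency after pTyr selection over input frequency; kinase dosed for 20-30% of maximal phosphorylation in three min.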

Fyn, sequence (P06241 whole entry, looked up): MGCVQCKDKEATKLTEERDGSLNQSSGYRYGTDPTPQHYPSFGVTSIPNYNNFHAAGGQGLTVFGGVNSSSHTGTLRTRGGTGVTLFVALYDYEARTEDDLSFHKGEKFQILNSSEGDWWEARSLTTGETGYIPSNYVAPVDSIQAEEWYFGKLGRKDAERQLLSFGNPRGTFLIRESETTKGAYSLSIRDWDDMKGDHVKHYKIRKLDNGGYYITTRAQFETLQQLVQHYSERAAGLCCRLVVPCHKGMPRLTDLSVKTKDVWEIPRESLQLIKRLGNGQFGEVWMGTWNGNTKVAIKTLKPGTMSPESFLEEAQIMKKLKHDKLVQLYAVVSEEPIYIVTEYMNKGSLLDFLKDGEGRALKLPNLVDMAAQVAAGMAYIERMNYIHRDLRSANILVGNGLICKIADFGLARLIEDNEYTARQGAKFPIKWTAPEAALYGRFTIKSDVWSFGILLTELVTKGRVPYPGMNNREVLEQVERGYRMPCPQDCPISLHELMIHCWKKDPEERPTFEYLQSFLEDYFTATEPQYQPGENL
FGFR1, sequence (P11362 whole entry, looked up): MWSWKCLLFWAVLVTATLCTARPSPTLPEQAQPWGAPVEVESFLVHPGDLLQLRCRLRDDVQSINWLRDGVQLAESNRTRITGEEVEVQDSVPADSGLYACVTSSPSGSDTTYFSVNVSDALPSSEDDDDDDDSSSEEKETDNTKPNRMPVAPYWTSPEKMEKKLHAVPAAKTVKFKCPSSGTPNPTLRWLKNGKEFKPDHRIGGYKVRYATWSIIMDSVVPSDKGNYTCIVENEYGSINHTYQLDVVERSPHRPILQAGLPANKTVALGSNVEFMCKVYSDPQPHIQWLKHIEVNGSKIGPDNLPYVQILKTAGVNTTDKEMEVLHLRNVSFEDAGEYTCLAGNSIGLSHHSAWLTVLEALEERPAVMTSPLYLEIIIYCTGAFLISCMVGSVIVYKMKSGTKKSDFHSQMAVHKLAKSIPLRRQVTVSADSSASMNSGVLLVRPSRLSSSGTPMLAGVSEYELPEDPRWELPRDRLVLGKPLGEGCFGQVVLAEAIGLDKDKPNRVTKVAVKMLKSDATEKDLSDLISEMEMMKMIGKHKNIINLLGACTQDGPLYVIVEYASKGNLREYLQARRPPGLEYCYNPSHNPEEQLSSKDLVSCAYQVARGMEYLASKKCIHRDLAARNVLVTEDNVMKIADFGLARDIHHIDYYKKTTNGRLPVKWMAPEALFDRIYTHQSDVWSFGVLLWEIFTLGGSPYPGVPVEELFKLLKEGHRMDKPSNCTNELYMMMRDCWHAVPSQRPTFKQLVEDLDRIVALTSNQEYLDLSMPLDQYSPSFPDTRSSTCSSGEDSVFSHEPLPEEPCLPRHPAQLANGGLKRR
FGFR3, sequence (P22607 whole entry, looked up): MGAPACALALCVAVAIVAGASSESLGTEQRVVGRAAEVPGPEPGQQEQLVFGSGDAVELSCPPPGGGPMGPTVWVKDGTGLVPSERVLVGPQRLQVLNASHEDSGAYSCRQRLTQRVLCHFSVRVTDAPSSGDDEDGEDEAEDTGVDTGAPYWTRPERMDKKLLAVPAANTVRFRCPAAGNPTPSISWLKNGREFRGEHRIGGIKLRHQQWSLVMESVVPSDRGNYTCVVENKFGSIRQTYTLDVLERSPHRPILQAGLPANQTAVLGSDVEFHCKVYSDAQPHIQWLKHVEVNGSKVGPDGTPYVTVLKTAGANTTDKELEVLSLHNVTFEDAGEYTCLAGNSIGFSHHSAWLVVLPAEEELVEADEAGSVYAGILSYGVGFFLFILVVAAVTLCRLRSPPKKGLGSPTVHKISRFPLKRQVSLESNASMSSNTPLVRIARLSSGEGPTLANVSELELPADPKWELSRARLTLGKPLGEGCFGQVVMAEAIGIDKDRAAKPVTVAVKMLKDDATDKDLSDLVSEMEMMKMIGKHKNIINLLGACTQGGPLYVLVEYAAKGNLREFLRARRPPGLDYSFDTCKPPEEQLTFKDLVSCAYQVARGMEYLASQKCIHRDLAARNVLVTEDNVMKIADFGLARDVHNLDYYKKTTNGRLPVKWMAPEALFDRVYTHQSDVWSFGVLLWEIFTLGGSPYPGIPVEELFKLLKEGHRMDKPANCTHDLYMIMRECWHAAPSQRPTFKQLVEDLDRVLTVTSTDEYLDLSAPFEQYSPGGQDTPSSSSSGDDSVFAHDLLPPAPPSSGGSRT
EPHB1, sequence (P54762 whole entry, looked up): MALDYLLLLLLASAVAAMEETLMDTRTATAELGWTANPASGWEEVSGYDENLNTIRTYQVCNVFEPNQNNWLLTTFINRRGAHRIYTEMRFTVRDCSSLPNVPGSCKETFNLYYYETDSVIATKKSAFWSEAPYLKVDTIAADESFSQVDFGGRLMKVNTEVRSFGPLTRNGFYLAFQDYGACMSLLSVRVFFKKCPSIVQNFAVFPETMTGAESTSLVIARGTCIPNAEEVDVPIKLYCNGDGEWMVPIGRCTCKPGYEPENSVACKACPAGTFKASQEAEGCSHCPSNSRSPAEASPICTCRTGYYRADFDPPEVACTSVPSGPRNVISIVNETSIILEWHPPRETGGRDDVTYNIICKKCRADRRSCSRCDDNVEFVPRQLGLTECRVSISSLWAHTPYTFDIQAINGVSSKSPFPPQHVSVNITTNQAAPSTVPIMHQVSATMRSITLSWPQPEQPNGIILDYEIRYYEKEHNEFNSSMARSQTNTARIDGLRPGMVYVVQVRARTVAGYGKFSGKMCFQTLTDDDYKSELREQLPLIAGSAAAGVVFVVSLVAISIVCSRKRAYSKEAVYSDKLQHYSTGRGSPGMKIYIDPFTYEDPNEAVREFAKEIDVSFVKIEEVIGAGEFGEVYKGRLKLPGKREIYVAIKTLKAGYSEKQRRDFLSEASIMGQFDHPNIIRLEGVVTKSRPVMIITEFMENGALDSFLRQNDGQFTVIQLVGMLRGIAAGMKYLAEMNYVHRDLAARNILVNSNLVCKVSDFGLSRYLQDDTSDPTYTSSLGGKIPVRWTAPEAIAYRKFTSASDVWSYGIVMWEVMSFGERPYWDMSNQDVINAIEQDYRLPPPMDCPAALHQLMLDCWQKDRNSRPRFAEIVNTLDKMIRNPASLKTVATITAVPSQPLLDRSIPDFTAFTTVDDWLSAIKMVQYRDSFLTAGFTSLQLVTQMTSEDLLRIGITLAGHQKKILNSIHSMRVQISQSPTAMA

SH2 binding enrichment (SHP2-C SH2)	SH2 binding enrichment (c-Src SH2)	SH2 binding enrichment (Grb2 SH2)	Sequence	phosphorylation enrichment (c-Abl (mouse))	phosphorylation enrichment (Hck)	phosphorylation enrichment (AncSZ)	phosphorylation enrichment (Fyn)	phosphorylation enrichment (FGFR1)	phosphorylation enrichment (FGFR3)	phosphorylation enrichment (MERTK)	phosphorylation enrichment (EPHB1)	phosphorylation enrichment (EPHB2)	phosphorylation enrichment (Fes)	phosphorylation enrichment (c-Src)	phosphorylation enrichment (Jak2)	phosphorylation enrichment (Fer (mouse))
0.617	0.555	0.756	MKDLTYSSLCF [ALOX5_Y446_A447S]	1.53	6.78	1.48	6.62	0.997	1.14	4.91	2.89	2.67	1.35	5.91	1.21	3.84
0.464	0.351	0.712	MKGEFYRFLAE [YWHAG_Y131_D129E_YF]	0.627	0.414	0.77	0.392	0.336	0.529	0.372	0.426	0.455	0.902	0.382	0.907	0.4
1.69	1.08	1.01	MKVPLYETPAG [PGM5_Y358_V357L]	11.2	6.03	1.64	1.82	0.52	0.632	9.79	19.4	27.8	1.06	1.81	0.767	16.7
0.67	0.515	1	MLNTNYHLPPS [MT-ATP8_Y33]	0.556	0.297	0.705	0.384	3.4	2.43	0.757	0.617	0.514	0.526	0.354	0.502	0.327
0.55	0.381	0.697	MRNDLYQTPLH [NFKB1_Y582]	5.88	4.21	1.69	1.8	0.454	0.57	2.62	1.19	2.44	0.845	1.94	0.693	4.12
0.659	0.516	0.835	MSRDVYSTDFF [NTRK2_Y702_YF]	0.568	1.28	0.691	2.65	1.06	0.718	5.05	0.756	0.774	0.732	2.73	0.728	0.486
0.64	0.693	1.25	MSSLFYANALF [HOXB7_Y6_T9A_YF]	0.696	0.705	0.975	0.762	0.58	0.743	1.29	0.764	0.755	1.21	0.975	1.24	1.78
0.672	0.454	0.823	MTKEQYIKMNR [ARFGEF2_Y797]	0.335	0.407	0.595	0.397	0.458	0.445	0.348	0.365	0.357	0.558	0.369	0.563	0.346
0.88	0.624	0.988	NARGLYFKLHN [GATA2_Y376_C373R_YF]	0.896	0.53	1.51	0.487	0.554	0.87	0.476	0.622	0.634	1.34	0.542	1.67	0.657
0.893	0.541	0.969	NGLVACKDGKL [PMM2_Y76_Y76C]	0.401	0.401	0.486	0.416	0.392	0.484	0.367	0.397	0.524	0.43	0.387	0.435	0.419
0.669	0.436	0.917	NGLVAYKDGKL [PMM2_Y76]	0.427	0.372	0.602	0.305	0.431	0.448	0.429	0.341	0.403	0.612	0.423	0.528	0.457
0.825	0.974	0.967	NHFKIYNLCAE [PTEN_Y68_YF]	0.52	1.12	0.882	2.61	0.676	0.647	0.584	0.412	0.516	0.766	3.12	0.577	0.535
1.41	1.11	1.59	NIISFYLSRDP [CTSD_Y232_F229I]	0.655	0.451	1.18	0.446	0.516	0.773	0.36	0.529	0.498	1.27	0.346	0.958	0.43
0.801	0.565	0.968	NKFVAYIESQG [KDM4B_Y34_YF]	0.611	0.494	0.899	0.49	0.491	0.663	0.459	0.526	0.553	1.12	0.452	0.836	0.481
1.51	0.676	0.755	NKYVAYIESQG [KDM4B_Y34]	0.692	0.413	0.893	0.407	0.567	0.625	0.449	0.554	0.472	0.885	0.437	0.827	0.422

Sequence	SH2 binding enrichment (SHP2-C SH2)	SH2 binding enrichment (c-Src SH2)	SH2 binding enrichment (Grb2 SH2)	phosphorylation enrichment (c-Abl (mouse))	phosphorylation enrichment (Hck)	phosphorylation enrichment (AncSZ)	phosphorylation enrichment (Fyn)	phosphorylation enrichment (FGFR1)	phosphorylation enrichment (FGFR3)	phosphorylation enrichment (MERTK)	phosphorylation enrichment (EPHB1)	phosphorylation enrichment (EPHB2)	phosphorylation enrichment (Fes)	phosphorylation enrichment (c-Src)	phosphorylation enrichment (Jak2)	phosphorylation enrichment (Fer (mouse))
NFRNTYVNANE [KCNH2_Y475_T473N]	1.55	2.64	29.8	0.467	0.466	0.559	0.404	0.434	0.474	0.404	0.373	0.395	0.677	0.424	0.577	0.358

— the supplement of paper PMC10065799, “High-throughput profiling of sequence recognition by tyrosine kinases and SH2 domains using bacterial peptide display” (eLife, 2023)
